Laboratory results published in the Immune Epitope Database (IEDB).

What was measured:
Assay in all cases: IEDB peptide-MHC binding, purified MHC/competitive/radioactivity; filed as Kd, often an IC50 or EC50 that approximates it; ≥ and ≤ were set here for values at or beyond the usual limits of such assays
HLA-A*02:02 = biological target: HLA-A*02:02
HLA-A*02:03 = biological target: HLA-A*02:03
HLA-A*02:06 = biological target: HLA-A*02:06
HLA-A*31:01 = biological target: HLA-A*31:01
HLA-A*68:01 = biological target: HLA-A*68:01
HLA-A*03:01 = biological target: HLA-A*03:01
HLA-A*11:01 = biological target: HLA-A*11:01
HLA-A*33:01 = biological target: HLA-A*33:01
[1] = source organism: Vaccinia virus WR
[2] = source organism: Mammarenavirus guanaritoense
[3] = source organism: Mammarenavirus juninense
[4] = source organism: Dengue virus 1 Brazil/97-11/1997
[5] = source organism: SARS coronavirus Tor2
[6] = source organism: Triticum aestivum

With STSNVITDQT the Kd (HLA-A*02:02; [1]) was ≥ 53600 nM, the Kd (HLA-A*02:03; [1]) was ≥ 70400 nM and the Kd (HLA-A*02:06; [1]) was 10800 nM.
TAEQLSKYV was tested, and the Kd (HLA-A*02:02; [1]) was 5220 nM, the Kd (HLA-A*02:03; [1]) was 8900 nM and the Kd (HLA-A*02:06; [1]) was ≥ 23900 nM.
In the case of TCITSMAER, the Kd (HLA-A*31:01; [2]) is reported as 559 nM, the Kd (HLA-A*68:01; [2]) is reported as 243 nM and the Kd (HLA-A*03:01; [2]) is reported as ≥ 67000 nM. It also gave a Kd (HLA-A*11:01; [2]) of 17400 nM and a Kd (HLA-A*33:01; [2]) of 2630 nM.
In the case of TGINENYAK, the Kd (HLA-A*31:01; [3]) is reported as ≥ 53400 nM, the Kd (HLA-A*68:01; [3]) is reported as 998 nM and the Kd (HLA-A*03:01; [3]) is reported as ≥ 78000 nM. The Kd (HLA-A*11:01; [3]) was 1530 nM and the Kd (HLA-A*33:01; [3]) was ≥ 77700 nM.
For TISGNIYSA, the Kd (HLA-A*02:02; [1]) was 84.5 nM, the Kd (HLA-A*02:03; [1]) was 18.9 nM and the Kd (HLA-A*02:06; [1]) was 179 nM.
With TLATGPLTTL the Kd (HLA-A*02:03; [4]) was 9.26 nM.
With TLDTMDDMK the Kd (HLA-A*31:01; [1]) was ≥ 77900 nM, the Kd (HLA-A*68:01; [1]) was 373 nM and the Kd (HLA-A*03:01; [1]) was 11800 nM. For the same sequence, the Kd (HLA-A*11:01; [1]) was 466 nM and the Kd (HLA-A*33:01; [1]) was ≥ 77700 nM.
Sequence TLILAPTRVV has a Kd (HLA-A*02:03; source organism: Dengue virus 2 Jamaica/1409/1983) of 42.6 nM.
TLLCVLAAL was tested, and the Kd (HLA-A*02:02; [5]) was 8.1 nM, the Kd (HLA-A*02:03; [5]) was 10.6 nM and the Kd (HLA-A*02:06; [5]) was 7.98 nM.
For TLNEYKQLY, the Kd (HLA-A*31:01; [1]) was 1350 nM, the Kd (HLA-A*68:01; [1]) was 1360 nM and the Kd (HLA-A*03:01; [1]) was 56.7 nM. For the same sequence, the Kd (HLA-A*11:01; [1]) was 124 nM and the Kd (HLA-A*33:01; [1]) was 7000 nM.
Sequence TLVPVLEKKV has a Kd (HLA-A*02:02; [1]) of 112 nM, a Kd (HLA-A*02:03; [1]) of 100 nM and a Kd (HLA-A*02:06; [1]) of 498 nM.
TMKAIEKDR was tested, and the Kd (HLA-A*31:01; [1]) was 227 nM, the Kd (HLA-A*68:01; [1]) was 511 nM and the Kd (HLA-A*03:01; [1]) was ≥ 25900 nM. It also gave a Kd (HLA-A*11:01; [1]) of 2620 nM and a Kd (HLA-A*33:01; [1]) of 675 nM.
For TSLAIKNYYR, the Kd (HLA-A*31:01; [1]) was 460 nM, the Kd (HLA-A*68:01; [1]) was 5.8 nM and the Kd (HLA-A*03:01; [1]) was 118 nM. The Kd (HLA-A*11:01; [1]) was 0.933 nM and the Kd (HLA-A*33:01; [1]) was 258 nM.
Work on TTAFFNTCK yielded a Kd (HLA-A*31:01; [1]) of 226 nM, a Kd (HLA-A*68:01; [1]) of 0.947 nM and a Kd (HLA-A*03:01; [1]) of 46.2 nM. It also gave a Kd (HLA-A*11:01; [1]) of 0.492 nM and a Kd (HLA-A*33:01; [1]) of 997 nM.
In the case of VATFRDMLL, the Kd (HLA-A*02:02; [1]) is reported as 2530 nM, the Kd (HLA-A*02:03; [1]) is reported as 9940 nM and the Kd (HLA-A*02:06; [1]) is reported as 7720 nM.
With VFYRSGTETK the Kd (HLA-A*31:01; [1]) was 8280 nM, the Kd (HLA-A*68:01; [1]) was ≥ 20400 nM and the Kd (HLA-A*03:01; [1]) was ≥ 33800 nM. For the same sequence, the Kd (HLA-A*11:01; [1]) was ≥ 34100 nM and the Kd (HLA-A*33:01; [1]) was 6530 nM.
Sequence VIADYNYKL has a Kd (HLA-A*02:02; [5]) of 0.477 nM, a Kd (HLA-A*02:03; [5]) of 115 nM and a Kd (HLA-A*02:06; [5]) of 69.1 nM.
VILPDKIDGL showed a Kd (HLA-A*02:02; [1]) of 8090 nM, a Kd (HLA-A*02:03; [1]) of 10800 nM and a Kd (HLA-A*02:06; [1]) of 240 nM.
Work on VLCVKKFYK yielded a Kd (HLA-A*31:01; [1]) of 1.32 nM, a Kd (HLA-A*68:01; [1]) of 344 nM and a Kd (HLA-A*03:01; [1]) of 25.2 nM. For the same sequence, the Kd (HLA-A*11:01; [1]) was 8.82 nM and the Kd (HLA-A*33:01; [1]) was 162 nM.
VLGLGLSLK gave a Kd (HLA-A*31:01; [1]) of 1570 nM, a Kd (HLA-A*68:01; [1]) of 9650 nM and a Kd (HLA-A*03:01; [1]) of 6.73 nM. For the same sequence, the Kd (HLA-A*11:01; [1]) was 25.7 nM and the Kd (HLA-A*33:01; [1]) was ≥ 26800 nM.
VMCGGSLYVK was tested, and the Kd (HLA-A*31:01; [5]) was 648 nM, the Kd (HLA-A*68:01; [5]) was 8480 nM and the Kd (HLA-A*03:01; [5]) was 58.4 nM. The Kd (HLA-A*11:01; [5]) was 46.6 nM and the Kd (HLA-A*33:01; [5]) was 16300 nM.
VQFSILNNPV showed a Kd (HLA-A*02:02; [1]) of 131 nM, a Kd (HLA-A*02:03; [1]) of 369 nM and a Kd (HLA-A*02:06; [1]) of 186 nM.
With VTSLAIKNY the Kd (HLA-A*31:01; [1]) was ≥ 34800 nM, the Kd (HLA-A*68:01; [1]) was 12500 nM and the Kd (HLA-A*03:01; [1]) was ≥ 25100 nM. For the same sequence, the Kd (HLA-A*11:01; [1]) was 322 nM and the Kd (HLA-A*33:01; [1]) was ≥ 77700 nM.
VVKDKIKLPT was tested, and the Kd (HLA-A*02:02; [1]) was ≥ 37300 nM, the Kd (HLA-A*02:03; [1]) was 8600 nM and the Kd (HLA-A*02:06; [1]) was ≥ 29200 nM.
For VVLQQHNIVH, the Kd (HLA-A*31:01; [6]) was 5200 nM, the Kd (HLA-A*68:01; [6]) was ≥ 29600 nM and the Kd (HLA-A*03:01; [6]) was 2020 nM. For the same sequence, the Kd (HLA-A*11:01; [6]) was 4630 nM and the Kd (HLA-A*33:01; [6]) was ≥ 28300 nM.
With VVRDFENYVK the Kd (HLA-A*31:01; [1]) was 269 nM, the Kd (HLA-A*68:01; [1]) was 71.3 nM and the Kd (HLA-A*03:01; [1]) was 24.9 nM. The Kd (HLA-A*11:01; [1]) was 30.7 nM and the Kd (HLA-A*33:01; [1]) was 8050 nM.
WLMWFIISIV was tested, and the Kd (HLA-A*02:02; [5]) was 246 nM, the Kd (HLA-A*02:03; [5]) was 4.72 nM and the Kd (HLA-A*02:06; [5]) was 107 nM.
Work on YAVLSEYETM yielded a Kd (HLA-A*02:02; [1]) of 157 nM, a Kd (HLA-A*02:03; [1]) of 9630 nM and a Kd (HLA-A*02:06; [1]) of 1210 nM.
YFISIYSRPK showed a Kd (HLA-A*31:01; [1]) of 112 nM, a Kd (HLA-A*68:01; [1]) of 25.2 nM and a Kd (HLA-A*03:01; [1]) of 220 nM. The Kd (HLA-A*11:01; [1]) was 853 nM and the Kd (HLA-A*33:01; [1]) was 107 nM.
Work on YIEDELRRA yielded a Kd (HLA-A*02:02; [1]) of 1760 nM, a Kd (HLA-A*02:03; [1]) of 259 nM and a Kd (HLA-A*02:06; [1]) of 1230 nM.
In the case of YIIRRSGCR, the Kd (HLA-A*31:01; [1]) is reported as 29.3 nM, the Kd (HLA-A*68:01; [1]) is reported as 64.1 nM and the Kd (HLA-A*03:01; [1]) is reported as 10500 nM. The Kd (HLA-A*11:01; [1]) was 566 nM and the Kd (HLA-A*33:01; [1]) was 192 nM.
With YIRRNMINKL the Kd (HLA-A*02:02; [1]) was 820 nM, the Kd (HLA-A*02:03; [1]) was 69.6 nM and the Kd (HLA-A*02:06; [1]) was 8660 nM.
YIWIKNLETY was tested, and the Kd (HLA-A*31:01; [1]) was 1740 nM, the Kd (HLA-A*68:01; [1]) was 161 nM and the Kd (HLA-A*03:01; [1]) was 1460 nM. It also gave a Kd (HLA-A*11:01; [1]) of 3440 nM and a Kd (HLA-A*33:01; [1]) of 4480 nM.
Sequence YIWKSYVHI has a Kd (HLA-A*02:02; [5]) of 86.4 nM, a Kd (HLA-A*02:03; [5]) of 12.9 nM and a Kd (HLA-A*02:06; [5]) of 8.89 nM.
YLALYNKYK was tested, and the Kd (HLA-A*31:01; [5]) was 941 nM, the Kd (HLA-A*68:01; [5]) was 913 nM and the Kd (HLA-A*03:01; [5]) was 201 nM. For the same sequence, the Kd (HLA-A*11:01; [5]) was 1320 nM and the Kd (HLA-A*33:01; [5]) was 7980 nM.
Sequence YQVKTETTI has a Kd (HLA-A*02:06; source organism: Dengue virus 4 Philippines/H241/1956) of 26.3 nM.
With YSYATHHDK the Kd (HLA-A*31:01; [5]) was 3470 nM, the Kd (HLA-A*68:01; [5]) was 16.3 nM and the Kd (HLA-A*03:01; [5]) was 16.4 nM. The Kd (HLA-A*11:01; [5]) was 30.5 nM and the Kd (HLA-A*33:01; [5]) was ≥ 26200 nM.
For YTLFQQTGR, the Kd (HLA-A*31:01; [1]) was 50 nM, the Kd (HLA-A*68:01; [1]) was 0.384 nM and the Kd (HLA-A*03:01; [1]) was 3100 nM. It also gave a Kd (HLA-A*11:01; [1]) of 551 nM and a Kd (HLA-A*33:01; [1]) of 24.1 nM.
In the case of YVMCTGSFKL, the Kd (HLA-A*02:06; [4]) is reported as 18.8 nM.
YVVTTDISEM showed a Kd (HLA-A*02:06; [4]) of 1160 nM.
